Test results reported in paper PMC3315527.

Molecular target: chaperone receptors within native chloroplast membranes (dynamic TIRE)
Test: total internal reflection ellipsometry (TIRE); dynamic: pea chloroplast membranes on Cr/Au slides; time course of Δ at 700 nm over 15 min at chaperone concentrations from 1 to 10 µg/ml in 100 mM Tris-HCl pH 8.0; 1/τ against concentration fitted to a line, KA = ka/kd

Sequence of Hsp70-1 (At5g02500), full length (P22953 whole entry): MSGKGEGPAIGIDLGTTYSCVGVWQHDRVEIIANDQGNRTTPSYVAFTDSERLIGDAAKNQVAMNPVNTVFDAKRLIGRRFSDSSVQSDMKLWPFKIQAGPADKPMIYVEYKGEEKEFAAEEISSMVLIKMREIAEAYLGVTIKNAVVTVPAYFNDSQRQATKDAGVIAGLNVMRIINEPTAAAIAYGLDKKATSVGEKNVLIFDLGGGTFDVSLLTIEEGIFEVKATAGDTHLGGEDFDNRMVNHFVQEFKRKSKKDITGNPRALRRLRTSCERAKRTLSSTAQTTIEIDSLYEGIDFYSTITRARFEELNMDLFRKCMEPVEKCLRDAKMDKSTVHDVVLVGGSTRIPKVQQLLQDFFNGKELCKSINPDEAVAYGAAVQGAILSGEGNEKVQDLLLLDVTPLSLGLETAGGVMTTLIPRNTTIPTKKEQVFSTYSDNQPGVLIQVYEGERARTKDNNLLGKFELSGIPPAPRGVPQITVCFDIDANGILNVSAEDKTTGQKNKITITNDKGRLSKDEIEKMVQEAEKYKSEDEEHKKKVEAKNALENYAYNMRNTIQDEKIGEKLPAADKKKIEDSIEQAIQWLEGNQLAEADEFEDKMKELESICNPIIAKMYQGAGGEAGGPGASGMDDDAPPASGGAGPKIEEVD
Sequence of Hsp90-2 (At5g56030), full length (P55737 whole entry): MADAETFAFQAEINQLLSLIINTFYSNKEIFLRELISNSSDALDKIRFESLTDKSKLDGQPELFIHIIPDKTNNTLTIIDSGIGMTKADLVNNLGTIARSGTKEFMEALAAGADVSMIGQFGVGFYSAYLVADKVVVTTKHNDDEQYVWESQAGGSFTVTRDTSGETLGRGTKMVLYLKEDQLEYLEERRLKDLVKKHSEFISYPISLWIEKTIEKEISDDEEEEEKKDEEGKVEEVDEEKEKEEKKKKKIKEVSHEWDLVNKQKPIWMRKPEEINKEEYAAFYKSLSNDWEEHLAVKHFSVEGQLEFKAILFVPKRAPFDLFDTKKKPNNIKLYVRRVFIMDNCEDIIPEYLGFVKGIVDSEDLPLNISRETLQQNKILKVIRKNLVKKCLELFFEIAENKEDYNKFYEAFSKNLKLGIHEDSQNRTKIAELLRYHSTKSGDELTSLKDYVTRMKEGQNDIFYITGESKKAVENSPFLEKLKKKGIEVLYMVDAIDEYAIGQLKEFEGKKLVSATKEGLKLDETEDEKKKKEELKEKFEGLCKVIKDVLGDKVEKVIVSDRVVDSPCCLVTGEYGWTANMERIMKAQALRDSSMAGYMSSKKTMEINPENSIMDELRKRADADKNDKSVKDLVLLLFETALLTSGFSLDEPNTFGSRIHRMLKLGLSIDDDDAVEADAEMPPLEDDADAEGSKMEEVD

Ka [M⁻¹]	Substance
9.15e+06	Hsp70-1 (At5g02500), full length (from UniProt P22953 1-651) (natural protein)
8.74e+06	Hsp90-2 (At5g56030), full length (from UniProt P55737 1-699) (natural protein)
